Literature values in article PMC11996608.

Molecular target: core RNA polymerase (Escherichia coli) (UniProt P0A7Z4)

Sequence of RapA (P60240 2-968): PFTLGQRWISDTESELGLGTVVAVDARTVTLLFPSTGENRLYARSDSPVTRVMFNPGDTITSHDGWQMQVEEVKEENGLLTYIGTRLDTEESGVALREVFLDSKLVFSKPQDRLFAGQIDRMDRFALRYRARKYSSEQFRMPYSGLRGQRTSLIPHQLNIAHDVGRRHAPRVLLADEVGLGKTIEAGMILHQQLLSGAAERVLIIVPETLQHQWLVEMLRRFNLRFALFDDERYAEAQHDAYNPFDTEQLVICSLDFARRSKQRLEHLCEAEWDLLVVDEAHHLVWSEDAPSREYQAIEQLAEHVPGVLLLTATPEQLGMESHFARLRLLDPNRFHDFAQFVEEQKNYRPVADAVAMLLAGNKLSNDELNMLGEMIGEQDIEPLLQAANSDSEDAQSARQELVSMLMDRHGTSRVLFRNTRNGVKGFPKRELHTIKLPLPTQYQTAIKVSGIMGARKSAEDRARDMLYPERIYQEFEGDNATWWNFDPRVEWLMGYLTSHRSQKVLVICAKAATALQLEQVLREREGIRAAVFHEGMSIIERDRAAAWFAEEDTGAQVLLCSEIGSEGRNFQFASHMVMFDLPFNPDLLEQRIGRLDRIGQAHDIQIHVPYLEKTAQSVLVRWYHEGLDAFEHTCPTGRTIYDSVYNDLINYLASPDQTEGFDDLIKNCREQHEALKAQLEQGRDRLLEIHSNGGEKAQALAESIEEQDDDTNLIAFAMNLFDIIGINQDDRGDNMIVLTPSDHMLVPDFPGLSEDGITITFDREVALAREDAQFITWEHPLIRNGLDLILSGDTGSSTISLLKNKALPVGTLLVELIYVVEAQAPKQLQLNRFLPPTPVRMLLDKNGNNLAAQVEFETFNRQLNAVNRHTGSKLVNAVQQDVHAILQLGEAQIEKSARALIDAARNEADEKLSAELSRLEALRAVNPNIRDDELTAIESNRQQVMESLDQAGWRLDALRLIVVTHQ

- Kd: 7.5 nM
Substance: RapA (from UniProt P60240)
